Entries after “also recorded” stand apart in the source; their conditions may differ.
T1: ART2b(R204K) (Rattus norvegicus, UniProt P20974, R204K)
T1 construct: made in house; host or cells: rat mammary adenocarcinoma (NMU) cells, pMAMneo vector, dexamethasone-induced; released with PI-PLC
T1 sequence (P20974 21-246 R204K limits assumed): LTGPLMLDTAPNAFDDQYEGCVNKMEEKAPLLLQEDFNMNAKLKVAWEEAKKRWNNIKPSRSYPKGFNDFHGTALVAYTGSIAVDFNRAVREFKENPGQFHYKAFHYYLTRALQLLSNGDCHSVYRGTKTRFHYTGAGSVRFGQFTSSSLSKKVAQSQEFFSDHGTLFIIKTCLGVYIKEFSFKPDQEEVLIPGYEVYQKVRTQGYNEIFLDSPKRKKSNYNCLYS


How the values were obtained:
[1] = Auto-ADP-ribosylation of PI-PLC released recombinant ART2 proteins with [^32P]NAD, SDS-PAGE; type: biochemical, rat; details: for auto-ADP-ribosylation at multiple sites (decrease in mobility on SDS-PAGE): 10 μM [^32P]NAD, followed by 5 mM unlabeled NAD; for auto-ADP-ribosylation: [^32P]NAD added to PI-PLC released protein, SDS-PAGE
Experimental: To investigate the structural basis for these differences in catalytic function, site-specific mutagenesis was employed with synthesis of recombinant ART2b and ART2a proteins in rat adenocarcinoma cells (NMU) under a dexamethasone-sensitive promoter. After induction and expression of the GPI-anchored proteins, cells were incubated with PI-PLC to cleave the GPI anchor and then [^32P]-NAD was added to the medium to promote auto-ADP-ribosylation of the released protein (FIG. 2).
To assess the ability of ART2 proteins, ART2a and ART2b, to be auto-ADP-ribosylated at multiple sites, proteins were incubated first with 10 μM [^32P]NAD, followed by addition of 5 mM unlabeled NAD and further incubation (FIG. 4). […] It is unlikely that auto-modification was due to non-enzymatic addition of [^32P]ADP-ribose since reactions were carried out in the presence of 1 mM ADP-ribose, or due to NAD binding, since the radiolabel was not displaced by incubation with 5 mM NAD.

[2] = NAD glycohydrolase (NADase) assay; type: biochemical, rat; details: for NADase activity during the course of the reaction (rate of NAD hydrolysis): change over the course of the reaction; for NADase activity: PI-PLC released recombinant protein from NMU cells, 0.1 mM [carbonyl-^14C]NAD, 1 hour at 30° C.
Experimental: (§1) NADase activity was measured in DPBS with 0.1 mM [carbonyl-^14C]NAD (8×10^4 cpm) for 1 hour at 30° C., (total volume=150,u). Samples (50,u) were applied to AG1-X2 (BIO-RAD, Hercules, Calif.) columns (0.4×4 cm), equilibrated and eluted with water for liquid scintillation counting as described (Moss et al., Proc Natl Acad Sci U S A 73(12):4424-7, 1976). Transferase activity was assayed similarly with or without 20 mM agmatine as ADP-ribose acceptor and with [adenine-^14C]NAD substituted for [carbonyl-^14C]NAD.

ART2b(R204K) = target: T1, ART2b(R204K); assay: Incubation of wildtype ART2b with ART2b(R204K) and millimolar NAD (intermolecular modification); type: biochemical; details: millimolar NAD, with or without ART2b(R204K)
Experimental: The blots contain samples from cells expressing wild type ART2b (lanes 1), ART2b(R204K) (lanes 2), or a mixtures of samples containing ART2b and ART2b(R204K) (lanes 3). Samples were incubated with or without 10 μM [^32P]NAD followed by either TCA precipitation or further incubation with 5 mM NAD. The radiolabeled wild type ART2b and ART2b(R204K) proteins were combined and then incubated with or without 5 mM NAD.
To investigate whether ART2b(R204K) could be modified, wildtype ART2b was incubated with its mutant ART2b(R204K) and millimolar NAD (FIG. 5).

[3] = ADP-ribosyltransferase assay with agmatine as ADP-ribose acceptor; type: biochemical, rat; details: 20 mM agmatine as ADP-ribose acceptor
Experimental: as §1

Row | Molecule | auto-ADP-ribosylation at multiple sites (decrease in mobility on SDS-PAGE) [1] | auto-ADP-ribosylation [1] | NADase activity during the course of the reaction (rate of NAD hydrolysis) [2] | modification (mobility on SDS-PAGE) after incubation of wildtype ART2b with ART2b(R204K) and NAD (ART2b(R204K)) | NADase activity [2] | transfer of ADP-ribose to agmatine [3]
1 | ART2b(R204K): rat ART2b with arginine-to-lysine substitution at position 204 (protein) LTGPLMLDTAPNAFDDQYEGCVNKMEEKAPLLLQEDFNMNAKLKVAWEEAKKRWNNIKPSRSYPKGFNDFHGTALVAYTGSIAVDFNRAVREFKENPGQFHYKAFHYYLTRALQLLSNGDCHSVYRGTKTRFHYTGAGSVRFGQFTSSSLSKKVAQSQEFFSDHGTLFIIKTCLGVYIKEFSFKPDQEEVLIPGYEVYQKVRTQGYNEIFLDSPKRKKSNYNCLYS | not modified by incubation with NAD | abolished both the primary and secondary modifications | did not change | not modified by wildtype ART2b in an intermolecular reaction |  | 
2 | ART2b(R204W): rat ART2b with arginine-to-tryptophan substitution at position 204 (protein, UniProt P20974 21-246, looked up, variant R204W) T-cell …: LTGPLMLDTAPNAFDDQYEGCVNKMEEKAPLLLQEDFNMNAKLKVAWEEAKKRWNNIKPSRSYPKGFNDFHGTALVAYTGSIAVDFNRAVREFKENPGQFHYKAFHYYLTRALQLLSNGDCHSVYRGTKTRFHYTGAGSVRFGQFTSSSLSKKVAQSQEFFSDHGTLFIIKTCLGVYIKEFSFWPDQEEVLIPGYEVYQKVRTQGYNEIFLDSPKRKKSNYNCLYS | weak auto-ADP-ribosylation activity at multiple sites | auto-ADP-ribosylation at non-arginine sites | decreased during the course of the reaction |  | greater than that of wild-type ART2b | unable to transfer ADP-ribose to agmatine
3 | ART2a(M81R,Y204R): rat ART2a with M81R and Y204R substitutions (protein, UniProt P17982 21-246, looked up, variant M81R Y204R) T-cell …: LTGPLMLDTAPNAFDDQYEGCVNKMEEKAPLLLKEDFNKSEKLKVAWEEAKKRWNNIKPSRSYPKGFNDFHGTALVAYTGSIGVDFNRAVREFKENPGQFHYKAFHYYLTRALQLLSNGDCHSVYRGTKTRFHYTGAGSVRFGQFTSSSLSKTVAQSPEFFSDDGTLFIIKTCLGVYIKEFSFRPDQEEVLIPGYEVYQKVRTQGYNEIFLDSPKRKKSNYNCLYS | exhibited auto-ADP-ribosylation following incubation with 5 mM NAD | auto-ADP-ribosylation of both glycosylated 33 kDa and nonglycosylated 29 kDa forms was observed |  |  |  | 
4 | ART2a(Y204R): rat ART2a with tyrosine-to-arginine substitution at position 204 (protein) LTGPLMLDTAPNAFDDQYEGCVNKMEEKAPLLLKEDFNKSEKLKVAWEEAKKRWNNIKPSMSYPKGFNDFHGTALVAYTGSIGVDFNRAVREFKENPGQFHYKAFHYYLTRALQLLSNGDCHSVYRGTKTRFHYTGAGSVRFGQFTSSSLSKTVAQSPEFFSDDGTLFIIKTCLGVYIKEFSFRPDQEEVLIPGYEVYQKVRTQGYNEIFLDSPKRKKSNYNCLYS | exhibited auto-ADP-ribosylation following incubation with 5 mM NAD | auto-ADP-ribosylation of both glycosylated 33 kDa and nonglycosylated 29 kDa forms was observed |  |  |  | 
5 | ART2a(M81R): rat ART2a with methionine-to-arginine substitution at position 81 (protein) LTGPLMLDTAPNAFDDQYEGCVNKMEEKAPLLLKEDFNKSEKLKVAWEEAKKRWNNIKPSRSYPKGFNDFHGTALVAYTGSIGVDFNRAVREFKENPGQFHYKAFHYYLTRALQLLSNGDCHSVYRGTKTRFHYTGAGSVRFGQFTSSSLSKTVAQSPEFFSDDGTLFIIKTCLGVYIKEFSFYPDQEEVLIPGYEVYQKVRTQGYNEIFLDSPKRKKSNYNCLYS |  | had no effect |  |  |  | 
6 | ART2a(59MNA61,Y204R): rat ART2a with K59M, S60N, E61A and Y204R substitutions, non-glycosylated (protein, UniProt P17982 21-246, looked up, variant K59M S60N E61A Y204R) T-cell …: LTGPLMLDTAPNAFDDQYEGCVNKMEEKAPLLLKEDFNMNAKLKVAWEEAKKRWNNIKPSMSYPKGFNDFHGTALVAYTGSIGVDFNRAVREFKENPGQFHYKAFHYYLTRALQLLSNGDCHSVYRGTKTRFHYTGAGSVRFGQFTSSSLSKTVAQSPEFFSDDGTLFIIKTCLGVYIKEFSFRPDQEEVLIPGYEVYQKVRTQGYNEIFLDSPKRKKSNYNCLYS | exhibited auto-ADP-ribosylation following incubation with 5 mM NAD |  |  |  |  | 
7 | ART2b(R81K): rat ART2b with arginine-to-lysine substitution at position 81 (protein) LTGPLMLDTAPNAFDDQYEGCVNKMEEKAPLLLQEDFNMNAKLKVAWEEAKKRWNNIKPSKSYPKGFNDFHGTALVAYTGSIAVDFNRAVREFKENPGQFHYKAFHYYLTRALQLLSNGDCHSVYRGTKTRFHYTGAGSVRFGQFTSSSLSKKVAQSQEFFSDHGTLFIIKTCLGVYIKEFSFRPDQEEVLIPGYEVYQKVRTQGYNEIFLDSPKRKKSNYNCLYS | exhibited auto-ADP-ribosylation following incubation with 5 mM NAD | no effect on auto-ADP-ribosylation |  |  |  | 
8 | ART2a: rat ADP-ribosyltransferase ART2a (RT6.1), SEQ ID NO:11, wild type (protein, listed as Rattus norvegicus) MPSNICKFFLTWWLIQQVTGLTGPLMLDTAPNAFDDQYEGCVNKMEEKAPLLLKEDFNKSEKLKVAWEEAKKRWNNIKPSMSYPKGFNDFHGTALVAYTGSIGVDFNRAVREFKENPGQFHYKAFHYYLTRALQLLSNGDCHSVYRGTKTRFHYTGAGSVRFGQFTSSSLSKTVAQSPEFFSDDGTLFIIKTCLGVYIKEFSFYPDQEEVLIPGYEVYQKVRTQGYNEIFLDSPKRKKSNYNCLYSSAGTRESCVSLFLVVLTSLLVQLLCLAEP |  | not significantly auto-modified |  |  | have NADase activity | 
9 | ART2b: rat ADP-ribosyltransferase ART2b (RT6.2), SEQ ID NO:12, wild type (protein, listed as Rattus norvegicus) MPSNICKFFLTWWLIQQVTGLTGPLMLDTAPNAFDDQYEGCVNKMEEKAPLLLQEDFNMNAKLKVAWEEAKKRWNNIKPSRSYPKGFNDFHGTALVAYTGSIAVDFNRAVREFKENPGQFHYKAFHYYLTRALQLLSNGDCHSVYRGTKTRFHYTGAGSVRFGQFTSSSLSKKVAQSQEFFSDHGTLFIIKTCLGVYIKEFSFRPDQEEVLIPGYEVYQKVRTQGYNEIFLDSPKRKKSNYNCLYSSAGARESCVSLFLVVLPSLLVQLLCLAEP | exhibited auto-ADP-ribosylation following incubation with 5 mM NAD | significantly auto-ADP-ribosylated; also recorded: Multiple species of auto-ADP-ribosylated | decreased during the course of the reaction | exhibited decreasing mobility on SDS-PAGE | have NADase activity | unable to transfer ADP-ribose to agmatine
